In patent US20190062395A1 (MEDICENNA THERAPEUTICS, published 2019):

Target: T1, interleukin 2 receptor beta (IL-2Rβ) (UniProt P14784 27-240, limits assumed)
T1 construct: also called CD122
T1 sequence (looked up): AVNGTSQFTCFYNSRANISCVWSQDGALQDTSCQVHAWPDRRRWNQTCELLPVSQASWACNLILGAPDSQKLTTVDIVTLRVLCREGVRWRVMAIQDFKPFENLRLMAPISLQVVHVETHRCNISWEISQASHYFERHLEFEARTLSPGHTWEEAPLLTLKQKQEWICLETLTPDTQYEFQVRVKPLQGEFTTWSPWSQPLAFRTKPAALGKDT
Assay: method not stated; Kd column of the H9 substitution matrix; target not given

Kd: 1.3 nM
B1: H9 (IL-2 mutein having the amino acid substitutions L80F, R81D, L85V, I86V, and I92F, numbered in accordance with wild-type human IL-2 of SEQ ID NO:2) (ligand)
chain: APTSSSTKKTQLQLEHLLLDLQMILNGINNYKNPKLTRMLTFKFYMPKKATELKHLQCLEEELKPLEEVLNLAQSKNFHFDPRDVVSNINVFVLELKGSETTFMCEYADETATIVEFLNRWITFCQSIISTLT
notes: also called IL-2 superkine
